# Measured values published in US20250154215A1, “PHARMACEUTICAL COMPOSITION FOR TREATING COLITIS OR COLORECTAL CANCER COMPRISING COLON-TARGETED S100A8/A9-DERIVED SPECIFIC PEPTIDE” (Industry-University Cooperation Foundation Hanyang …, priority 2023, published 2025).
# B1: TWYKIAFQRNRKTWYKIAFQRNRKTWYKIAFQRNRKTWYKIAFQRNRKTWYKIAFQRNRKGGFLVIKGGAHKSHKGGITIITFGGGHHGGFLVIKGGAHKSHKGGITIITFGGGHHGGFLVIKGGAHKSHKGGITIITFGGGHHGG (protein)
# chain: TWYKIAFQRNRKTWYKIAFQRNRKTWYKIAFQRNRKTWYKIAFQRNRKTWYKIAFQRNRKGGFLVIKGGAHKSHKGGITIITFGGGHHGGFLVIKGGAHKSHKGGITIITFGGGHHGGFLVIKGGAHKSHKGGITIITFGGGHHGG
# modifications: N-terminal 6xHis tag
# Experiment: The results of in vitro plasma stability, microsomal stability, CYP inhibition and PK profile of S100A8/A9 peptides and rCT-S100A8/A9 proteins
# Description: Table printed on a drawing sheet, Fig. 5B
# Title: The results of in vitro plasma stability, microsomal stability, CYP inhibition and PK profile of S100A8/A9 peptides and rCT-S100A8/A9 proteins
# The patent's description of the figure: FIGS. 5A and 5B show the drug-like properties of rCT-S100A8/A9. […] Bacteria-purified 6×His-rCT-S100A8/9, rVehicle or rCT was analyzed by Coomassie staining or IB using αHis (bottom, left). BMDMs were incubated with rVehicle, rCT, or rCT-S100A8/9 for the indicated times and at the indicated concentrations, and then cell viability was measured by MTT assay (bottom, right). […] HLM, human liver microsomes; CYP, cytochrome P450. aTmax, arrival time; AUClast, total area under the plasma concentration-time curve from time 0 to the time of the last measurement; Cmax, maximum plasma concentration;
# First reader's note: All values were measured after ip dosing of 1 mg/kg in mice (n = 5); the footnote for the raised a is not printed on the sheet, and the title stands once above both tables.
molecule,measurement,value
B1,"PK parameters (ip, 1 mg/kg, mice (n = 5))^a | AUClast",0.23582 ± 0.05148 µg·h/mL
same,"PK parameters (ip, 1 mg/kg, mice (n = 5))^a | Cmax",0.21312 ± 0.02538 µg/mL
same,"PK parameters (ip, 1 mg/kg, mice (n = 5))^a | T1/2",1.91 ± 0.42 h
same,"PK parameters (ip, 1 mg/kg, mice (n = 5))^a | Tmax",0.23 ± 0.0 h
